Assays:
[1] = Dissociation constant of RNA-fluorophore complex, titration with DFHO; format: binding; settings: 50 nM RNA, one-site saturation model
Excerpt: FIG. 2A is a schematic showing the secondary structure of Squash as predicted by mFOLD (Squash: 5′-GGCUACAAGGUGAGCCCAAUAAUACGGUUUGGGUUAGGAUAGGAAGUAGAGCCGUAAACUCUCUAAGCGGUAGUC-3′ (SEQ ID NO:1)). Squash retained the main structural elements of add A-riboswitch aptamer including a 3-way junction and predicted kissing loop interactions (residues at positions 30, 31, 56, and 57, solid gray line). An additional base pair in the kissing loop between loop L2 and L3 (residues at positions 29 and 58, dotted gray line) improved fluorescence activation. […] Shown are the excitation (Ex) and emission (Em) spectra of Squash bound to DFHBI-1T and DFHO (structures shown in inset). Spectra were measured using 20 μM RNA and 2 μM of the indicated fluorogenic dye. […] Fluorescence activation was measured by incubating 200 nM dye and 10 μM RNA. By using a large excess of RNA compared to the fluorophore, it was ensured that the fluorescence observed is from 200 nM RNA-fluorophore complex. Data represent mean values±s.d. for n=3 independent experiments. The values inside the bars indicate fold activation. AU, arbitrary units. […] FIG. 2E is a bar graph showing the results of an experiment in which Squash-DFHO fluorescence was measured in buffers containing exclusively the indicated cations. […]

In vitro folding of RNAs = format: physicochemical; settings: 40 mM HEPES-KOH (pH 7.4), 100 mM KCl, 0.5 mM MgCl2
Description: Briefly, the fluorescence intensities of two solutions were compared: one having excess fluorophore and limiting RNA, and the other with excess RNA and limiting fluorophore. This allows calculation of the percent of the aptamer that is folded. For these experiments, 0.2 μM of fluorophore (or RNA) and 10 μM of RNA (or fluorophore) was used. The signal from the limiting RNA condition was divided by the signal from the limiting fluorophore condition to determine the fraction folded.
To prepare this complex, 10 μM Squash is incubated with 0.2 μM DFHO. By having large excess of Squash, there is likely to be enough folded Squash to form 0.2 μM Squash-DFHO complex. Next, 0.2 μM Squash is incubated with excess (10 μM) DFHO.

[2] = Fluorescence activation of DFHO by aptamers in vitro; format: biochemical
Excerpt: FIG. 2A is a schematic showing the secondary structure of Squash as predicted by mFOLD (Squash: 5′-GGCUACAAGGUGAGCCCAAUAAUACGGUUUGGGUUAGGAUAGGAAGUAGAGCCGUAAACUCUCUAAGCGGUAGUC-3′ (SEQ ID NO:1)). Squash retained the main structural elements of add A-riboswitch aptamer including a 3-way junction and predicted kissing loop interactions (residues at positions 30, 31, 56, and 57, solid gray line). An additional base pair in the kissing loop between loop L2 and L3 (residues at positions 29 and 58, dotted gray line) improved fluorescence activation. […] Shown are the excitation (Ex) and emission (Em) spectra of Squash bound to DFHBI-1T and DFHO (structures shown in inset). Spectra were measured using 20 μM RNA and 2 μM of the indicated fluorogenic dye. […] Fluorescence activation was measured by incubating 200 nM dye and 10 μM RNA. By using a large excess of RNA compared to the fluorophore, it was ensured that the fluorescence observed is from 200 nM RNA-fluorophore complex. Data represent mean values±s.d. for n=3 independent experiments. The values inside the bars indicate fold activation. AU, arbitrary units. FIG. 2D is a graph showing the dissociation constant (Kd) between Squash and DFHO as measured by titration of 50 nM Squash with increasing concentration of DFHO, and fitted using a one-site saturation model. […] FIG. 2E is a bar graph showing the results of an experiment in which Squash-DFHO fluorescence was measured in buffers containing exclusively the indicated cations. […] Similar to the parental add A-riboswitch aptamer (see Lemay et al., “Folding of the Adenine Riboswitch,” Chem. Biol. 13:857-868 (2006), which is hereby incorporated by reference in its entirety), Squash-DFHO has a low magnesium requirement for fluorescence activation. […]
FIG. 6A is a bar graph showing fluorescence activation of DFHO by Squash and its precursors. Fluorescence was measured with 200 nM dye and 10 μM RNA (ex: 495 nm, em: 562 nm, except for Corn; ex: 505 nm, em: 545 nm). […] FIG. 6B is a bar graph showing fluorescence of initial hits after Round 7 of SELEX. In vitro transcribed RNAs from each hit (1 μM final) were mixed with DFHBI-1T (10 μM final) and the fluorescence was measured (ex: 452 nm, em: 503 nm, except for Broccoli; ex: 472 nm, em: 507 nm). […] FIGS. 6C-6D are bar graphs showing fluorescence measurements of the hits with DFHBI-1T after first (FIG. 6C) and second (FIG. 6D) round of directed evolution, measured as in FIG. 6B. […] FIG. 6E is a bar graph showing fluorescence measurements of hits using DFHO after the second round of directed evolution measured as in FIG. 6A. The fluorescence of the hits were normalized against Corn. […] FIG. 6F is a graph showing normalized fluorescence. […] Fluorescence was measured as in FIG. 6A. […]

B1: Squash: fluorogenic RNA aptamer evolved from the add A-riboswitch aptamer, binds DFHBI-1T and DFHO; SEQ ID NO: 12 (SEQ ID NO: 1) (nucleic acid)
chain: AGGUGAGCCCAAUAAUACGGUUUGGGUUAGGAUAGGAAGUAGAGCCGUAAACUCUCUAAGCG
modifications: RNA, backbone not given here
- Kd [1]: 54 nM
- % folded in vitro (In vitro folding of RNAs): approximately 80%
- Fold activation of DFHO fluorescence [2]: 550 fold
- Activation of DFHO compared to Corn ([2]; 200 nM dye and 10 μM RNA): > 2 fold
- Fluorescence intensity with DFHO compared to Corn ([2]; 10 μM RNA, 1 μM DFHO): more than two-fold higher
